Laboratory results from the supplement of paper PMC10065799, “High-throughput profiling of sequence recognition by tyrosine kinases and SH2 domains using bacterial peptide display” (eLife, 2023).

target: FGFR3 (UniProt P22607); experiment: phosphorylation enrichment, bacterial display (enrichment ratio); higher = better substrate or ligand; peptides without Tyr show the background
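Note: 11-residue human phosphosite peptides and single-mutation variants displayed on the E. coli surface, counted by deep sequencing, each peptide's frequency after selection divided by its frequency in the unselected input library; frequency after pTyr selection over input frequency; kinase dosed for 20-30% of maximal phosphorylation in three min.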

FGFR3, sequence (P22607 whole entry, looked up): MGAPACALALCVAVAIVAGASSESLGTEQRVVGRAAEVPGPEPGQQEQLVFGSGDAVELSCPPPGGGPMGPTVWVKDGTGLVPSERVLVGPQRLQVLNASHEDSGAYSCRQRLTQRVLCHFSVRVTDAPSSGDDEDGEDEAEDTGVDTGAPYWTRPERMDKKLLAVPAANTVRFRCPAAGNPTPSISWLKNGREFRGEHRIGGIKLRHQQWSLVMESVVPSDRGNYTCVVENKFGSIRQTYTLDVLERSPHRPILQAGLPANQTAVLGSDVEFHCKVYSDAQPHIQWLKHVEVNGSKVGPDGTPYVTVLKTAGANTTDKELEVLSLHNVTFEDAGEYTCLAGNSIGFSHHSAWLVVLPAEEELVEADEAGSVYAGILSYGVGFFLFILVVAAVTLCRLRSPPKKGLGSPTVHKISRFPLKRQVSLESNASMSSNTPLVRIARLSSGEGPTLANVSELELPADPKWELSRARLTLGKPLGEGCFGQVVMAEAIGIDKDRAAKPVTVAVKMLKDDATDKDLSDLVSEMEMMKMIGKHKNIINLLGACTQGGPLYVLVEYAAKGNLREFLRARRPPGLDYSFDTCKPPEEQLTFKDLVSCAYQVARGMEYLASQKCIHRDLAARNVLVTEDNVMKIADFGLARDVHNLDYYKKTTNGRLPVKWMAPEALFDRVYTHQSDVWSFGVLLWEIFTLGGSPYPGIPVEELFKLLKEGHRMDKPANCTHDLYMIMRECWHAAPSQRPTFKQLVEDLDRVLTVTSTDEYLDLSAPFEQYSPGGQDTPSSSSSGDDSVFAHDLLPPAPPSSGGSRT

Sequence	phosphorylation enrichment
AYGGGYGGVLT [KRT19_Y65]	0.645
RPAFTYATLIR [FOXP3_Y342_P339A]	0.868
KTAFSYTSSST [SIM1_Y356_P352T]	0.475
HFPFQYHRQLY [F12_Y53]	0.865
EIEFLYNENMV [IARS1_Y680_T684M]	0.693
VVTGLYEKPSL [KIR3DS1_Y221]	0.537
CFCSWYRGWAP [TIMP3_Y195_G190C_YF]	1.03
VMSGPYNLKAL [IL1B_Y140_E141N]	0.556
PLLEFYRDIFT [CDAN1_Y713_YF]	1.33
KFANSYIMEPL [TCTE3_Y87_R88I]	0.629
PADRAYSWYQH [NDST1_Y711]	1.16
RELGKYGLQAF [ALDH2_Y497_E496K_YF]	0.582
SLGKGYFDGGC [MC4R_Y35_S36Y_YF]	0.611
RLLVVYPGTQR [HBB_Y36_W38G]	0.703
GPIFRYDLGGA [CYP11B1_Y81]	0.433
TCFDKYTGNTY [FN1_Y101]	0.648
KFDLMYAKRAF [TUBA1A_Y399]	0.589

Sequence	phosphorylation enrichment
IMITGYLLLFR [INSR_Y87_D86G]	0.866
SVVVPYEPPVV [TP53_Y220_E224V]	0.61
GVTLLYYGRYN [ADGRD1_Y85]	0.826
EEVGIYRVSGV [BCR_Y1089]	0.647
PVQAAYQKLVA [HBB_Y131_V134L]	0.698
VKGGAYYPVTV [MCCC2_Y145]	3.75
ANQDDHISFRH [IMP4_Y226_Y226H]	0.535
GDNSIYVTKII [DLG1_Y349]	0.537
GFPVHYTGVSN [DNMT3B_Y815_D817G]	0.413
IFLENYNAGTY [CFI_Y421_H418L]	0.897
GAPATYKGDAR [CACNA1A_Y1013_E1014K]	0.452
GYSRHYEDGYP [CTNND1_Y217]	0.529
YPLAEYTEVKT [ALDH1A3_Y497_A493P]	0.824
TTHRGYDSDNP [MMUT_Y146_A141T]	0.823
PLQKTYNFNVL [SLC4A1_Y553_YF]	0.593
VQSASYLNACL [MCM3AP_Y864]	0.551

system: Fer (mouse); experiment: as above

Sequence	phosphorylation enrichment
AYGGGYGGVLT [KRT19_Y65]	0.477
RPAFTYATLIR [FOXP3_Y342_P339A]	0.718
KTAFSYTSSST [SIM1_Y356_P352T]	0.399
HFPFQYHRQLY [F12_Y53]	0.725
EIEFLYNENMV [IARS1_Y680_T684M]	0.526
VVTGLYEKPSL [KIR3DS1_Y221]	13.2
CFCSWYRGWAP [TIMP3_Y195_G190C_YF]	4.11
VMSGPYNLKAL [IL1B_Y140_E141N]	0.508
PLLEFYRDIFT [CDAN1_Y713_YF]	0.732
KFANSYIMEPL [TCTE3_Y87_R88I]	0.498
PADRAYSWYQH [NDST1_Y711]	15.8
RELGKYGLQAF [ALDH2_Y497_E496K_YF]	0.537
SLGKGYFDGGC [MC4R_Y35_S36Y_YF]	0.35
RLLVVYPGTQR [HBB_Y36_W38G]	0.42
GPIFRYDLGGA [CYP11B1_Y81]	0.466
TCFDKYTGNTY [FN1_Y101]	0.534
KFDLMYAKRAF [TUBA1A_Y399]	0.442

Sequence	phosphorylation enrichment
IMITGYLLLFR [INSR_Y87_D86G]	0.593
SVVVPYEPPVV [TP53_Y220_E224V]	0.457
GVTLLYYGRYN [ADGRD1_Y85]	0.577
EEVGIYRVSGV [BCR_Y1089]	0.504
PVQAAYQKLVA [HBB_Y131_V134L]	0.768
VKGGAYYPVTV [MCCC2_Y145]	0.819
ANQDDHISFRH [IMP4_Y226_Y226H]	0.416
GDNSIYVTKII [DLG1_Y349]	0.521
GFPVHYTGVSN [DNMT3B_Y815_D817G]	0.453
IFLENYNAGTY [CFI_Y421_H418L]	0.558
GAPATYKGDAR [CACNA1A_Y1013_E1014K]	0.319
GYSRHYEDGYP [CTNND1_Y217]	0.374
YPLAEYTEVKT [ALDH1A3_Y497_A493P]	0.516
TTHRGYDSDNP [MMUT_Y146_A141T]	0.423
PLQKTYNFNVL [SLC4A1_Y553_YF]	0.383
VQSASYLNACL [MCM3AP_Y864]	0.47

target: Fes (UniProt P07332); experiment: as above
Sequence (P07332 whole entry, looked up): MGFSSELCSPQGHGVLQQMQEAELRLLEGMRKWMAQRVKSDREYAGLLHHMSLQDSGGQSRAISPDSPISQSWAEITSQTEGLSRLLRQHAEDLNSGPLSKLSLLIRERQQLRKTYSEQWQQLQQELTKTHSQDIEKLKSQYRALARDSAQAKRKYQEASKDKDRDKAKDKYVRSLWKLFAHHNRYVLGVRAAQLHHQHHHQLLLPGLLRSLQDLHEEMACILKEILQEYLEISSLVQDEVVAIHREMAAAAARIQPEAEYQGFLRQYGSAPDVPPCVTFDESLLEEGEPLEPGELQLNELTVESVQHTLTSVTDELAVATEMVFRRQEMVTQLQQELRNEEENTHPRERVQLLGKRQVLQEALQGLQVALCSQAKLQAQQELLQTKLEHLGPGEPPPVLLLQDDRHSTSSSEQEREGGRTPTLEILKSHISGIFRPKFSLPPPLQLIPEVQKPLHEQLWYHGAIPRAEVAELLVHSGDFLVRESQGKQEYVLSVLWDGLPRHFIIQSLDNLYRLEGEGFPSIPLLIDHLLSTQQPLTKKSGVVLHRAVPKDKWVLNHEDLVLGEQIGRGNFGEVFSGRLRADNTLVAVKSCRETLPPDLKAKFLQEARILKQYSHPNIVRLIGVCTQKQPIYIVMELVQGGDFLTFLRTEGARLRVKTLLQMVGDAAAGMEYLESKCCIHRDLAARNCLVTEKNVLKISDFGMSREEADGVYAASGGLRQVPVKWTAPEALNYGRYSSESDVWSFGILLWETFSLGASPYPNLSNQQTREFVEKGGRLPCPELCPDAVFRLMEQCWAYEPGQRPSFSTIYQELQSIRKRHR

Sequence	phosphorylation enrichment
AYGGGYGGVLT [KRT19_Y65]	0.574
RPAFTYATLIR [FOXP3_Y342_P339A]	1.59
KTAFSYTSSST [SIM1_Y356_P352T]	0.721
HFPFQYHRQLY [F12_Y53]	1.28
EIEFLYNENMV [IARS1_Y680_T684M]	1.11
VVTGLYEKPSL [KIR3DS1_Y221]	0.66
CFCSWYRGWAP [TIMP3_Y195_G190C_YF]	1.44
VMSGPYNLKAL [IL1B_Y140_E141N]	0.765
PLLEFYRDIFT [CDAN1_Y713_YF]	2.2
KFANSYIMEPL [TCTE3_Y87_R88I]	0.606
PADRAYSWYQH [NDST1_Y711]	1.61
RELGKYGLQAF [ALDH2_Y497_E496K_YF]	0.926
SLGKGYFDGGC [MC4R_Y35_S36Y_YF]	0.924
RLLVVYPGTQR [HBB_Y36_W38G]	0.984
GPIFRYDLGGA [CYP11B1_Y81]	0.822
TCFDKYTGNTY [FN1_Y101]	1.16
KFDLMYAKRAF [TUBA1A_Y399]	0.921

Sequence	phosphorylation enrichment
IMITGYLLLFR [INSR_Y87_D86G]	1.4
SVVVPYEPPVV [TP53_Y220_E224V]	0.921
GVTLLYYGRYN [ADGRD1_Y85]	1.31
EEVGIYRVSGV [BCR_Y1089]	0.919
PVQAAYQKLVA [HBB_Y131_V134L]	0.796
VKGGAYYPVTV [MCCC2_Y145]	0.822
ANQDDHISFRH [IMP4_Y226_Y226H]	0.903
GDNSIYVTKII [DLG1_Y349]	0.782
GFPVHYTGVSN [DNMT3B_Y815_D817G]	0.598
IFLENYNAGTY [CFI_Y421_H418L]	1.04
GAPATYKGDAR [CACNA1A_Y1013_E1014K]	0.52
GYSRHYEDGYP [CTNND1_Y217]	0.722
YPLAEYTEVKT [ALDH1A3_Y497_A493P]	0.946
TTHRGYDSDNP [MMUT_Y146_A141T]	0.859
PLQKTYNFNVL [SLC4A1_Y553_YF]	0.903
VQSASYLNACL [MCM3AP_Y864]	0.813

target: Fyn (UniProt P06241); experiment: as above
Sequence (P06241 whole entry, looked up): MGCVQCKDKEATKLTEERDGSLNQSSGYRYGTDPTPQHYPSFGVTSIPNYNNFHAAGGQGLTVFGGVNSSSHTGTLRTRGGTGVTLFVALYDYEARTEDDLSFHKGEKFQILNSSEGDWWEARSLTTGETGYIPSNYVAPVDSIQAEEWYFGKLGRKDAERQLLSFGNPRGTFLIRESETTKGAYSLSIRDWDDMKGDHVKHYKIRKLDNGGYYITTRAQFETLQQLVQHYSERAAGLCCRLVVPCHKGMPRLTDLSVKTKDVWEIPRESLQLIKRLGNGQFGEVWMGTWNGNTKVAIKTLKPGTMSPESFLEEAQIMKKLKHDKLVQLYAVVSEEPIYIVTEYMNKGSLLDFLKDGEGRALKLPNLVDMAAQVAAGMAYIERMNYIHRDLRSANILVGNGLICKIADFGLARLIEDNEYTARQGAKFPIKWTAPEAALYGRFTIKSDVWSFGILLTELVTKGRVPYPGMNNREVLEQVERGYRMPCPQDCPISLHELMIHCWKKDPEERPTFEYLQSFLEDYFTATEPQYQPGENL

Sequence	phosphorylation enrichment
AYGGGYGGVLT [KRT19_Y65]	0.442
RPAFTYATLIR [FOXP3_Y342_P339A]	2.01
KTAFSYTSSST [SIM1_Y356_P352T]	0.41
HFPFQYHRQLY [F12_Y53]	0.59
EIEFLYNENMV [IARS1_Y680_T684M]	0.484
VVTGLYEKPSL [KIR3DS1_Y221]	2.3
CFCSWYRGWAP [TIMP3_Y195_G190C_YF]	0.647
VMSGPYNLKAL [IL1B_Y140_E141N]	0.596
PLLEFYRDIFT [CDAN1_Y713_YF]	0.669
KFANSYIMEPL [TCTE3_Y87_R88I]	0.529
PADRAYSWYQH [NDST1_Y711]	0.617
RELGKYGLQAF [ALDH2_Y497_E496K_YF]	0.526
SLGKGYFDGGC [MC4R_Y35_S36Y_YF]	0.377
RLLVVYPGTQR [HBB_Y36_W38G]	0.484
GPIFRYDLGGA [CYP11B1_Y81]	0.45
TCFDKYTGNTY [FN1_Y101]	0.511
KFDLMYAKRAF [TUBA1A_Y399]	0.434

Sequence	phosphorylation enrichment
IMITGYLLLFR [INSR_Y87_D86G]	0.63
SVVVPYEPPVV [TP53_Y220_E224V]	0.453
GVTLLYYGRYN [ADGRD1_Y85]	2.77
EEVGIYRVSGV [BCR_Y1089]	4.31
PVQAAYQKLVA [HBB_Y131_V134L]	0.582
VKGGAYYPVTV [MCCC2_Y145]	0.423
ANQDDHISFRH [IMP4_Y226_Y226H]	0.419
GDNSIYVTKII [DLG1_Y349]	0.622
GFPVHYTGVSN [DNMT3B_Y815_D817G]	0.359
IFLENYNAGTY [CFI_Y421_H418L]	0.415
GAPATYKGDAR [CACNA1A_Y1013_E1014K]	0.366
GYSRHYEDGYP [CTNND1_Y217]	0.382
YPLAEYTEVKT [ALDH1A3_Y497_A493P]	0.433
TTHRGYDSDNP [MMUT_Y146_A141T]	0.685
PLQKTYNFNVL [SLC4A1_Y553_YF]	0.602
VQSASYLNACL [MCM3AP_Y864]	0.419
